# Assay results published in the supplement of paper PMC9170038.
# System: K4 kissing-loop RNA reporter
# Experiment: apparent KD of K4 kissing-loop reporter; higher = weaker reporter binding
# Details: Eterna round: R107
# Procedure: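 RNA-MaP round R107: designed RNA switches with theophylline, tryptophan, arginine or FMN aptamers are transcribed on-chip within common flanks. They are titrated with a labelled K4 kissing-loop RNA reporter in RNA-MaP buffer (100 mM Tris pH 7.5, 80 mM KCl, 4 mM MgCl2), without ligand or with the indicated ligand. Median apparent KD per design.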
# [1] = input ligand: theophylline 20 uM
# [2] = input ligand: tryptophan 2.4 mM
# 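Also: bound reporter read as fluorescence of individual clusters on recovered sequencing chips by microscopy, with normalized cluster intensities fitted with a binding model.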
Sequence,apparent KD of K4 kissing-loop reporter (input ligand: FMN 200 uM) [nM],apparent KD of K4 kissing-loop reporter (input ligand: arginine 13.2 mM) [nM],apparent KD of K4 kissing-loop reporter (input ligand: none) [nM],apparent KD of K4 kissing-loop reporter [1] [nM],apparent KD of K4 kissing-loop reporter [2] [nM]
AAGGUUCGUGGAAGGAGCGCCCGUGCGACUCGUUCACUAAGUGAAGUCCGAGUGAUGUUCGGGCAGGUAGGUCGCCACGGGCAAA [Atonenge],164,133,152,153,153
AUUAAUUUCAGAGGAUAUCGUAAUUUUAUUUUAUUUUUUCAUUUAUGCAGUGAUGUUGCAUUUAUUCGAGAAGGCUGAUUUAUAA [JR_SSFMNB_Sub021],65.7,74.4,40.8,69.6,50.7
UGGGUGUAGUGAUGUUAUAUAGAGAGUGAUACCAGCUUAGAGAGAAGCCCUUGGCAGCAUAGAAGAGUAUCAUUGGAGGAGGAGG [ExTheophyl.Ay],680,527,609,668,401
AUUAAUUUCAGAGGAUAUCGUAAUUUUAUUUAAUUUAUUCAUUUAUGCAGUGAUGUUGCUAAUAUUCGAGAAGGCUGAUUUAUAA [JR_ExcFMNB_Sub007],103,121,55.8,115,52.2
UUAUCACCCUAAGGAUAUAGCUAAGUGAUGUUUAGCUCGUCGCAGGGUAAACACUAGGCCCAAAGGCUAGAAGGUAGCUGGUACC [theeternabot_exclusion_KL_FMN_B_35],70.6,66.9,74,81.3,69.6
GCCUGGGCCCGAAGGAGCGCCGUGACAGGUUACUGCAUUGAGCAGUGAUGUUGCUCAAUCUGGCAGGUAGGUCGCGGGCCCAGGC,120,100,102,108,93.1
UGAUCUCAGUGAUGUUGAGAUCAAACUGAUACCAGUCAAUUUAGUGACCCUUGGCAGCAGUAUACCAAGGGAUCUUAUGAGAUCA [Theo A SS t5],173,152,165,162,154
AUGGUAUUGCGAGGAUAUCCUUCCCACGUCGAAGUACCGUGCUUGAUGGAGUGAUGUUCGAUCAGAGGAGAAGGCGCGGUGUUAU [Same State FMN B GF22],706,368,572,645,639
UCAAACGAUGGAAGGAGCGCUCGUCAGUCCUGCGAGUGAUGUUCGUGGGUAAAUAGUCGCGAGCAGGUAGGUCGCCAUCUUAAGC [Bisodi],135,98.1,118,108,113
AGGUGAGACUGAAGGAGCGAUCGCGCUAGUGAUGUUGGCGAGCAUGACAAAGUCAUGCACGAUCAGGUAGGUCGCAGUCUUACUC [Omei KL Arginine B SS B v1],128,103,137,123,141
ACCUACGAUCACAAUAGUGAUUGUAGGAACUAGGAUAUGCUGAAAAGCAGAAGGAGUGAUGUUCCGUCAUGAAUAACAUGACAAA [FmnAX 5 #OpenEnded #K4Late #CoaxialStacking],251,525,495,594,336
UAGUCCGAGUGAUGGUCAUCACGUGGCGGGCGAGGACCGGUACGGCCGCCACUCGACUUUGCAGUGAUGUUGCAAACCGGACAAU [Exclusion - Tryptophan A (Freestyle 21)],229,185,249,224,193
AAUAUAGUGAUGUUAUAUAAGAAGGAGUUACGAGGACCGGUACGGCCGCCACUCGAAACGAGUGAGGGCCCGGGAGAUUGGGCCC [SSTryptA.G],339,275,320,436,262
GGGAGUAGUGCGGCCGCCACUGAGAAAGAAGAAGAAUAUAGUGAUGUUAUAUAGGAAUAAAAGAACAGGACCGGGCAUUAGAUUU [SSTRyptB.T],263,239,255,196,167
UGUGGAGAAUAUGAUACCAGCAGUGAGAGAGAGGAAGUAUAGUGAUGUUAUAUGAGAGAAUGCCCUUGGCAGCAUAUGAAGAAGG [SSTheophylB.E],174,120,148,138,115
UGAUUGGCGAAAGUAGUGAUGUUACGAAUAUAGGAUAUUAGAGGAAUAAGAAGGAUAAAUGAGAAAUAGGUAAAUUGUUGGUUGG [FMN same state],101,51.5,95.5,116,94.5
GGAUAGGACGGAGGAUAUGGUAGUGAUGUUACCAAACUGGUUAAACAUGUCAGAAAACUGGCAUGACCAGAAGGUUGUCCUAUCG [FmnBX 27 G10+U75],98.2,69,94.5,44.4,73.3
AAUACGAAGCAGUGAUGUUGCUUAUGAGAAGGAGCGCACGAAAGUGCAGGUAGGUCGCUCAGCCAAGUGGACGAAAACGUCCACA [whbob_SS_Arginine_A_sa108],96.4,116,98.4,127,90.6
ACCAUCAAAGAUGGCCAGGACACCGCUGAUACCAGAGUGAAAACACUCCCUUGGCAGCAGGUGAGUGAUGUUCACAGUCCAUGGA [Omel KL Theo A SS B v2],566,422,588,901,361
AGGAUCACGUCAGUGAUGUUGACAAGAGAUACCAGAGACGAAAGUCUCCCUUGGCAGCUCAUUGUGAUCCGUGACAAAGGUCACA [Omei KL hio A SS C v2],353,293,413,593,186
GUCUGCGUCUCGGCCGCCACUCACUAGUGAUGUUAGUAAGGAGCGACUAGAGAAGUCCAGUUGAUGAGGACCGGGAGACGCAAAA [Exclusion Tryptophan B GF4],114,84.3,95.7,85.8,169
GUGGUACAGGCGGCCGCCACUAGUGAUGUUAGUGUUAGAAGAUAUAGUAUAUAUCGGCAUUUGUUUAGGACCGGGCCUGGUGGAG [aqzacmullin],209,166,184,189,182

Sequence,apparent KD of K4 kissing-loop reporter (input ligand: FMN 200 uM) [nM],apparent KD of K4 kissing-loop reporter (input ligand: arginine 13.2 mM) [nM],apparent KD of K4 kissing-loop reporter (input ligand: none) [nM],apparent KD of K4 kissing-loop reporter [1] [nM],apparent KD of K4 kissing-loop reporter [2] [nM]
AGUGCCGAGUGUGAUACCAGCUUCAUGCAGUGAUGUUGCACACGAGUGAUGUUCGUCCGAGGCCCUUGGCAGCGCAGUCGCUCGA [Same State Theophylline B Gf 30],751,807,885,711,670
UGGAGUUGACGAAAAGUCAACUCCAGAGAAGGAGCGGACGAAAGUCCAGGUAGGUCGCUCACUACCAGUGAUGUUGGUACUUGAA,220,335,255,449,218
UUAAUAAUUCAAGGAUAUGUUUUCUAUUUCGAGUGAUGUUCGGAAUUAAUAAAUUUAAAAGAUUAUACAGAAGGUGAUAAAUAGU [Cynwulf-mod#2],87.1,92.8,85.9,115,81.1
AGACUACCACACUGUCAAUAGACAGUGAACUCGGAUAUGCUGAUAAGCAGAAGGAGUGAUGUUCCUAGGUAGUCAAUAAAAUAAU [FmnAX 13 C32],160,242,376,370,359
GUUACGCAUGGAAGGAGCGCUCUCAUAUUUAAUAACACAGUGAUGUUGUGAAUUUAUAUAAAGCAGGUAGGUCGCCAUGUGUAAC [Ex Arginine B K4 6],336,281,326,276,258
CCUAUCUCAUACGAUACCAGUCAAUGAUCUUUGAUCAAUGCCAUCACCGAGUGAUGUUCGGACCCUUGGCAGCGUAUGAGAUGGG [whbob_Ex_Theo_B_sa104],276,203,255,376,246
UGAUACCAGACGGCCGCCACUUCCGCAAGUCAAAGACUUGCCAAGGGAAUCGUCCAGUGAUGUUGGAGGACCGGGUCUGGUAUCU [FiskerMod 4 - Jieux - Exclusion - Tryptophan B],939,516,1220,525,587
UACAGGGCGAGUGAUGUUUGCUCAUGUGAUACCAGUGCCAUCCAACACCCUUGGCAGCAUGCGGGCAGUGAUGUUGUCCUUGGUU [Exclusion Theophylline A GF11],294,223,280,278,249
AGACCCUGGUAGGAUACCAGCGGCAUGCAGUGCGAGAGAGCGUAGUGAUGUUACGAGACCCGCCCUUGGCAGCCUGGGAAUGUGU [theeternabot_exclusion_KL_Theo_B_50],90.1,67.8,79.8,75.5,72.6
GAUGGUCGAGAAGGAUAUGUGACUACCAGAAGGAAAUUCAGUGAUGUUGAUUGUCGCGAGCAGGAGACAGAAGGUCUCAGACAUA [theeternabot_exclusion_KL_FMN_B_5],506,265,330,351,276
GGUUAAAGCACCCGGAGUGAUGUUCCGGAUACCAGCAAACCAACUUGCCCUUGGCAGCCGUAUAGCGUCCGGUGGGCCGAGCAUA [Raarce],94.9,94.3,98.4,97.6,92.7
GGUAUCUAUACAGAUACCAGUCGUACAGCACCAUUACAGGUUAGUGAUGUUAACCUGUACGACCCUUGGCAGCUGUAUUAUAAUA [#15 K4 Theophylline B Exclusion],94.3,88.7,86.8,91.4,85.2
AGAUGACAGGGAGGAUAUCCUAAUAUGGGUGAUGUUAGCGAUGUUGAAGGUGUAGUGAUGUUAUGCGGAGAAGGCCCUGUUGUUU [BDazzled - #23 - Exc. FMN B],82.4,61.7,115,78.7,78.5
AAGUACACGAUAGUGUACACCUAGUGAUGUUAGGAUAUGCAGAUAUGCAGAAGGAGCAAGUCAUCUGACAAUAGUCGGAUGACAA [FmnAX 7 #OpenEnded #K4Early],315,63.2,89.4,107,80.2
AAUAAAAUCACGGCCGCCACUGAUUACCAUAUUAGGAGUGAUGUUCCUAUGACUAUAUAAUUUAACAGGACCGGGUGAAUAUUUA [JR_ExcTryptoB_Sub011],105,103,107,106,94.3
AGCCAUCACACGGCCGCCACUGAGUAGUGAUGUUGCUUGUAAAUCAGUCACCGCAUUAAUGCCGACAGGACCGGGUGCAUCGAGG [theeternabot_exclusion_KL_Trp_B_17],327,142,327,394,247
UGAUACCAGACUGAUACCAGCCACAGAGUCAAGACUCUGAUAAAGGUAACCAGUGAUGUUGGCCCUUGGCAGCAGUCUGGUAUCU [TheoBX 16 #SwitchBubble #StaticStem],193,164,166,149,156
CAUCUCAUGAAAUGAGAUGUCAUCAGUGAAGGAGCGCUAUUAGCAGCAGGUAGGUCGCACUGAAGCGGAGUGAUGUUCUGUAUGA [Arg A SS t3],170,220,293,214,150
GAAUUAUGUAGAAGGAGCGUUAGAAGGUAUAGGUGCGAGUGAUGUUUGGAUUUGUUAAUUUGACAGGUAGGUCGCUACAGAAGGA [KL-SSArg B18 #analogue],946,259,567,205,306
AGCUAUUAGACGGCCGCCACUUGCUCUGAGACCUGACAUGGAACCAGUGAUGUUGGUUUGCGUGUAAGGACCGGGUUUGGUGGCG [Tiesbi],107,92.2,99.1,88.7,104
AGGCACGAGCAAGGAUAUUGAGUAGAGUGAUGUUCUGCCUGGGUUGGCUCGGAAGAGCCUUCUCAGCGAGAAGGUGCUCGUGCCU [#2 Same State - FMN A Attempt #24 (HarryS)],261,475,785,542,556
